Target: MET-Fc: extracellular MET domain fused with human IgG1-Fc (human, UniProt P08581 25-932)
Experiment: AlphaScreen or HTRF

MET-Fc: extracellular MET domain fused with human IgG1-Fc, sequence (P08581 25-932): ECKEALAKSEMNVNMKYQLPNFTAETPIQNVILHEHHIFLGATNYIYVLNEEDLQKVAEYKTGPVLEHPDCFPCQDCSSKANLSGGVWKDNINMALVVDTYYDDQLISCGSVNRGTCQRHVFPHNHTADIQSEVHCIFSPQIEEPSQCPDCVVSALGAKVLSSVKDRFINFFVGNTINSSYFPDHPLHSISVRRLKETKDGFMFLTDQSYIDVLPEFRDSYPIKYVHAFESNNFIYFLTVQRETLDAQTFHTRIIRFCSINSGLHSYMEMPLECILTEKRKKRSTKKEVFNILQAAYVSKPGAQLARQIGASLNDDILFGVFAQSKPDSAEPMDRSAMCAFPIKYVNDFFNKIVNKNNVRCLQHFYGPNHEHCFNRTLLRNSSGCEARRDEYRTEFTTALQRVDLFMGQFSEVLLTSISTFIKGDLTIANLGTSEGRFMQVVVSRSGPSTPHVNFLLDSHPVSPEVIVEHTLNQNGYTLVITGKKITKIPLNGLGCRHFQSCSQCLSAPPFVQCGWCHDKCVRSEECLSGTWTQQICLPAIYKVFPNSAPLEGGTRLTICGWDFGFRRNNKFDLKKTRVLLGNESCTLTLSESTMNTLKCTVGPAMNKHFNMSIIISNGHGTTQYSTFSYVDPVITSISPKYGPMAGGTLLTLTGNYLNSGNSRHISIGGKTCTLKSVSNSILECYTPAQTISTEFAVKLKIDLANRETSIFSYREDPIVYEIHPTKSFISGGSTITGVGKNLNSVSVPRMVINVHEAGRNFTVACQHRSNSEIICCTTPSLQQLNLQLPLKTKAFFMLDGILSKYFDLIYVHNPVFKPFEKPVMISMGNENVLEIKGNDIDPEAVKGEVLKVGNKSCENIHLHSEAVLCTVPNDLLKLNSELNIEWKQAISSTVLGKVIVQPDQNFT

- Kd: ~16 nM
B1: K1B: synthetic K1 domain of HGF/SF (residues 125-209) with C-terminal Gly-Gly-Lys(biotin) (domain or fragment)
chain: IRNCIIGKGRSYKGTVSITKSGIKCQPWSSMIPHEHSFLPSSYRGKDLQENYCRNPRGEEGGPWCFTSNPEVRYEVCDIPQCSEVGGK
modifications: biotin on the side chain of the added C-terminal lysine; three disulfide bonds
